From IntAct's records for PubMed 33986552

Biological target: GMPPA, Q96IJ6-1
Sequence (Q96IJ6 whole entry): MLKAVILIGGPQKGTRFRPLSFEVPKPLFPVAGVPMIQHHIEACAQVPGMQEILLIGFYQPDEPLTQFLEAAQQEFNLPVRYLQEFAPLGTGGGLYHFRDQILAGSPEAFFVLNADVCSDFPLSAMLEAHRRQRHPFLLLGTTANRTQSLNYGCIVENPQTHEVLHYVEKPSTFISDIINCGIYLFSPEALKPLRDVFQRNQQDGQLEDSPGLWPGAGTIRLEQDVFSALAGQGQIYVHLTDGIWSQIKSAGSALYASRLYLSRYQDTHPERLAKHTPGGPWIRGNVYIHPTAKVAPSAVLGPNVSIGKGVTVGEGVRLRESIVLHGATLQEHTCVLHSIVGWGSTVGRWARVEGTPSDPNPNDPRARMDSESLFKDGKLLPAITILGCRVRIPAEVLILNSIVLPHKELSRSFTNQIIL

Chain of Mannose-1-phosphate guanylyltransferase catalytic subunit beta (Homo sapiens), Q9Y5P6-1 L303F (Q9Y5P6 whole entry L303F): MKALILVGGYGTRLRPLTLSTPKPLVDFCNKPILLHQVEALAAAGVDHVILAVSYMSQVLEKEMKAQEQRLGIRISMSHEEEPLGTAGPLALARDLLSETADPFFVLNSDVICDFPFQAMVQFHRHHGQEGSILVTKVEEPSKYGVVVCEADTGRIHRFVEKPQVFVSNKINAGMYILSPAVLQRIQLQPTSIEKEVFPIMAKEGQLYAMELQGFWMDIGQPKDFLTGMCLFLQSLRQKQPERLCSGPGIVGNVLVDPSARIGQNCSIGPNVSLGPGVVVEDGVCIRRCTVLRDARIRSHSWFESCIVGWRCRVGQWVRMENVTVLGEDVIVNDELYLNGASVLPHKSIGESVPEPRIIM
Chain of Mannose-1-phosphate guanylyltransferase catalytic subunit beta (Homo sapiens), Q9Y5P6-1 C266Y (Q9Y5P6 whole entry C266Y): as the sequence (Q9Y5P6 whole entry L303F) above, with C266Y, F303L counted along it
Chain of Mannose-1-phosphate guanylyltransferase catalytic subunit beta (Homo sapiens), Q9Y5P6-1 D334N (Q9Y5P6 whole entry D334N): as the sequence (Q9Y5P6 whole entry L303F) above, with F303L, D334N counted along it
Chain of Mannose-1-phosphate guanylyltransferase catalytic subunit beta (Homo sapiens), Q9Y5P6-1 R293W (Q9Y5P6 whole entry R293W): as the sequence (Q9Y5P6 whole entry L303F) above, with R293W, F303L counted along it
Chain of Mannose-1-phosphate guanylyltransferase catalytic subunit beta (Homo sapiens), Q9Y5P6-1 R357H (Q9Y5P6 whole entry R357H): as the sequence (Q9Y5P6 whole entry L303F) above, with F303L, R357H counted along it

Row | Substance | effect of a mutation on the interaction
1 | Mannose-1-phosphate guanylyltransferase catalytic subunit beta (Homo sapiens), Q9Y5P6-1 C266Y | with no effect
2 | Mannose-1-phosphate guanylyltransferase catalytic subunit beta (Homo sapiens), Q9Y5P6-1 R293W | with no effect
3 | Mannose-1-phosphate guanylyltransferase catalytic subunit beta (Homo sapiens), Q9Y5P6-1 R357H | decreasing interaction strength

Second part, the substance after the results:

Row | effect of a mutation on the interaction | Substance
4 | with no effect | Mannose-1-phosphate guanylyltransferase catalytic subunit beta (Homo sapiens), Q9Y5P6-1 D334N
5 | with no effect | Mannose-1-phosphate guanylyltransferase catalytic subunit beta (Homo sapiens), Q9Y5P6-1 L303F
